Measured values: patent US20170269069

Experiments:
[1] = tested on: recombinant histone H3, wild type
[2] = tested on: H3 peptide (aa10-35) K18ac
[3] = tested on: nucleosome arrays containing the rH3 K18 acetyl-lysine analogue
[4] = tested on: nucleosome arrays containing unmodified rH3
[5] = tested on: rH3 K18 acetyl-lysine analogue
[6] = tested on: rH3 K27 dimethyl-lysine analogue
[7] = tested on: rH3 K27 monomethyl-lysine analogue
[8] = tested on: rH3 K27 trimethyl-lysine analogue
[9] = tested on: rH3 K36 dimethyl-lysine analogue
[10] = tested on: rH3 K36 monomethyl-lysine analogue
[11] = tested on: rH3 K36 trimethyl-lysine analogue
[12] = tested on: rH3 K4 dimethyl-lysine analogue
[13] = tested on: rH3 K4 monomethyl-lysine analogue
[14] = tested on: rH3 K4 trimethyl-lysine analogue
[15] = tested on: rH3 K9 dimethyl-lysine analogue
[16] = tested on: rH3 K9 monomethyl-lysine analogue
[17] = tested on: rH3 K9 trimethyl-lysine analogue
[18] = tested on: reconstituted native nucleosome arrays (modified native histones purified from HeLa cells)

Sequence of recombinant MMP-9 (aa115-730) (chain, as listed by the source): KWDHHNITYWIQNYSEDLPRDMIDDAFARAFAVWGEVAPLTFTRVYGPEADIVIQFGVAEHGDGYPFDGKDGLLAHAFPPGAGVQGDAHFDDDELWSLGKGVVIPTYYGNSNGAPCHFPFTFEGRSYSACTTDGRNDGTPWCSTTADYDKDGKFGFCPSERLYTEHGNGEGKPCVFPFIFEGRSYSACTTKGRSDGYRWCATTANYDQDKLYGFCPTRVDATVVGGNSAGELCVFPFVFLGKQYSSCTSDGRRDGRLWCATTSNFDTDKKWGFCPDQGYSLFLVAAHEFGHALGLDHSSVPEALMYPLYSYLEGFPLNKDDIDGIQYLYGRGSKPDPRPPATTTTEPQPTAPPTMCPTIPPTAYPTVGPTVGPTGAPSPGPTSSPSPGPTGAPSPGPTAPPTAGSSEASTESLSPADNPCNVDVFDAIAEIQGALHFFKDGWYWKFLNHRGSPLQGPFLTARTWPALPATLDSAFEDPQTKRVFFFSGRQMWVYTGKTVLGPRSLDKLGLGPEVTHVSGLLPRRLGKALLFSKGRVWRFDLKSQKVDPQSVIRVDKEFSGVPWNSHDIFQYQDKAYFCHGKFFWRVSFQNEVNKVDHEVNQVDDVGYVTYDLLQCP

Substance: recombinant USP14
- H3NT protease activity (in vitro H3NT cleavage assay, Western blot with the H3CT antibody) [1]: only rMMP-9 possessed H3NT protease activity

Substance: recombinant MMP-9 (aa115-730)
- cleaved H3 (peptide hydrolysis measured with fluorescamine; kinetic analysis), against unmodified H3 or H3K27me1 peptides [2]: 3-fold increase of cleaved H3 compared to unmodified H3 or H3K27me1 peptides
- H3NT cleavage (in vitro H3NT cleavage assay) [3]: the specific acetylation of H3K18 was both necessary and sufficient for H3NT cleavage by rMMP-9 in a nucleosome array context
- rMMP-9 protease activity (in vitro H3NT cleavage assay) [4]: completely resistant to rMMP-9 protease activity
- H3NT proteolysis (in vitro H3NT cleavage assay) [5]: the specific acetylation of K18 robustly increased H3NT proteolysis by rMMP-9
- MMP-9 activity (in vitro H3NT cleavage assay) [6]: nearly identical to rH3 control in all cases
- MMP-9 activity (in vitro H3NT cleavage assay) [7]: nearly identical to rH3 control in all cases
- MMP-9 activity (in vitro H3NT cleavage assay) [8]: nearly identical to rH3 control in all cases
- MMP-9 activity (in vitro H3NT cleavage assay) [9]: nearly identical to rH3 control in all cases
- MMP-9 activity (in vitro H3NT cleavage assay) [10]: nearly identical to rH3 control in all cases
- MMP-9 activity (in vitro H3NT cleavage assay) [11]: nearly identical to rH3 control in all cases
- MMP-9 activity (in vitro H3NT cleavage assay) [12]: nearly identical to rH3 control in all cases
- MMP-9 activity (in vitro H3NT cleavage assay) [13]: nearly identical to rH3 control in all cases
- MMP-9 activity (in vitro H3NT cleavage assay) [14]: nearly identical to rH3 control in all cases
- MMP-9 activity (in vitro H3NT cleavage assay) [15]: nearly identical to rH3 control in all cases
- MMP-9 activity (in vitro H3NT cleavage assay) [16]: nearly identical to rH3 control in all cases
- MMP-9 activity (in vitro H3NT cleavage assay) [17]: nearly identical to rH3 control in all cases
- H3NT protease activity (in vitro H3NT cleavage assay, Western blot with the H3CT antibody) [1]: only rMMP-9 possessed H3NT protease activity
- rMMP-9 protease activity (in vitro H3NT cleavage assay) [18]: rMMP-9 displayed robust activity for modified native nucleosome arrays
